{"source": "paper PMC10997794", "about": "“Seeding the meiotic DNA break machinery and initiating recombination on chromosome axes” (Nature Communications, 2024)", "binders": {"B1": {"name": "MBP-tagged IHO1 truncation, residues 359-574 (domain or fragment, mouse, UniProt Q6PDM4 359-574, looked up)", "chain": "KNWVMTTRSVSNHFSNLPSQRAGNGQGLMAQGASQRDVSKFEARVKNACPEYGPQSMCSFDSLEQSATEQKGRPCRKRRRGKKQQPQRSKRGGLLDRKQGQTSKAACAFIARHHCPQSPVCDPQGPLICWLTPRSSTKSTCHILGGTGETSQTARAAQGNLVQHSQRSSTDSSSQGDQQINWFSDLSLENLEPPQCKKGGTNLLCDPDFDSSDDNF", "notes": "The MBP tag is 3C HRV cleavable but was kept for the amylose pull-down; source: High Five insect cells (baculovirus), purified (MBP-trap, Resource Q, Superdex200); not shown: MBP, N-terminal, kept"}}, "target": "T1, SUMO-His tagged HORMAD1 HORMA (residues 1-235) (mouse, UniProt Q9D5T7 1-235)", "T1 construct": "HORMAD1, mouse, HORMA domain, amino acids 1-235, from codon-optimized synthetic DNA; also called the HORMA domain of HORMAD1; source: E. coli BL21(DE3), purified (Talon, ion exchange, SEC); not shown: SUMO, N-terminal, kept; His, N-terminal, kept", "T1 sequence (looked up)": "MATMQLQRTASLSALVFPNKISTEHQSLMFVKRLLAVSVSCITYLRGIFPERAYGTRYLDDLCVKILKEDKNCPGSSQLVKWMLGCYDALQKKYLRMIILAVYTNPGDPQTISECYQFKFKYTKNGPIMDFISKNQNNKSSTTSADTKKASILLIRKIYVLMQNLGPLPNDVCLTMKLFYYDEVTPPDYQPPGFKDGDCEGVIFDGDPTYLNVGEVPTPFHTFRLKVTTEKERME", "assay": "pull-down; amylose pull-down; MBP-tagged IHO1 truncations as baits at 1 µM with 12 µM SUMO-His HORMAD1 HORMA; 20 mM HEPES pH 7.5, 100 mM NaCl, 5% glycerol, 1 mM TCEP, 0.1% Tween20; 8 °C; Coomassie and immunoblot", "conditions": "both partners purified", "data": [{"binder": "B1", "values": [{"measurement": "binding result", "result": "binds"}]}]}
